We go through two molecules from article PMC9935730, “Expression, Purification, Structural and Functional Characterization of Recombinant Human Parvulin 17” (Molecular Biotechnology, 2022).

The assay has as its target T1, FRET peptide substrate Ac-EK(Dabcyl)pSPRFE(EDANS)KA-NH2 (SMILES …).
T1 peptide: Ac-EK(Dabcyl′)[pS]PRFE(EDANS)KA-NH2
Nature of the assay: cell-based or functional assay.

Square brackets hold non-standard residues; d marks the D form. Primed or numbered codes have the meaning given here. * marks the point of attachment. Dabcyl′ = quencher group on the Lys side chain, CN(C)c1ccc(/N=N/c2ccc(C(=O)*)cc2)cc1; EDANS = O=S(=O)(O)c1cccc2c(NCCN*)cccc12; pS = N[C@@H](COP(=O)(O)O)C(=O)O

B1: Catalytic domain of Par17, residues 60-156 (domain or fragment)
chain: not shown
For the molecule B1, the “Km, FRET-based chymotrypsin-coupled peptidyl-prolyl cis–trans isomerase assay (values at 1 h)” value was 62.5 µM.

B2: Catalytic domain of Pin1, residues 50-163 (domain or fragment, human, UniProt Q13526 50-163, looked up)
chain: GEPARVRCSHLLVKHSQSRRPSSWRQEKITRTKEEALELINGYIQKIKSGEEDFESLASQFSDCSSAKARGDLGAFSRGQMQKPFEDASFALRTGEMSGPVFTDSGIHIILRTE
Regarding B2, the “Km, FRET-based chymotrypsin-coupled peptidyl-prolyl cis–trans isomerase assay (values at 1 h)” value was 48.2 µM.
